Experimental data from patent US20210246189A1.

Target: transgenic TCR specific for A*02:01/pp65495-503, on transduced PBMCs
Experiment: cell-based or functional assay

| Ag-specific CD8 T cell population after 5d culture with 0.5 ug pMHC | Substance | Ag-specific CD8 T cell population after 5d culture with 0.25 ug pMHC |
| --- | --- | --- |
| – | A1/pp65(363-373) pMHC functionalized with MMAF (irrelevant toxin armed Streptamer) (from UniProt P61769 21-119; P06725 363-373) (peptide-MHC) | 60.7% |
| 20 to 43.7% | un-functionalized A2/pp65495-503 pMHC (Tub-tagged Streptamer) (from UniProt P61769 21-119; P06725 495-503) (peptide-MHC) | 64.5% |
